From publication PMC5951372

Experiments:
[1] = target: murine double minute 2 (MDM2) protein fragment; assay: atomic force microscopy; topographic maps of 20 x 20 µm^2 of the MDM2-functionalised photonic crystal surface after incubation with p53 (1.5 uM, 20 min); binding spots 10-20 nm high counted as p53•MDM2 complex; parameters: unit not given here
[2] = target: murine double minute 2 (MDM2) protein fragment; assay: photonic crystal bound-states-in-the-continuum resonance shift (label-free optical biosensor); MDM2 immobilised on the Si3N4 photonic crystal by APTES and BS3 (1.5 uM in 20 mM HEPES pH 7.4, 4 °C overnight), blocked with 5% non-fat dried milk in PBS; p53 1.5 uM in PBS, 20 min at room temperature, washed with PBS; transmission spectrum at θ = 0°

surface density of the complex [1]: 0.24
shift of the resonance wavelength [2]: 2.4 nm
Substance: p53 protein fragment (interacting domain of p53) (domain or fragment)
